Assay results as given in patent US20060128618A1 (APLAGEN, published 2006).
*1 amine or outer side, *2 acyl side, *3 side chain or, on linkers, in order; H or OH if unused. Bridges are numbered along the chain shown (N, C = ends). Where no end group is shown, it is not given here. [ ]: non-standard residue; d: D form. Als = 5-aminolevulinic acid, O=C(CCC(=O)[*:2])CN[*:1]

T1: erythropoietin receptor (UniProt P19235 25-508, limits assumed)
T1 sequence (looked up): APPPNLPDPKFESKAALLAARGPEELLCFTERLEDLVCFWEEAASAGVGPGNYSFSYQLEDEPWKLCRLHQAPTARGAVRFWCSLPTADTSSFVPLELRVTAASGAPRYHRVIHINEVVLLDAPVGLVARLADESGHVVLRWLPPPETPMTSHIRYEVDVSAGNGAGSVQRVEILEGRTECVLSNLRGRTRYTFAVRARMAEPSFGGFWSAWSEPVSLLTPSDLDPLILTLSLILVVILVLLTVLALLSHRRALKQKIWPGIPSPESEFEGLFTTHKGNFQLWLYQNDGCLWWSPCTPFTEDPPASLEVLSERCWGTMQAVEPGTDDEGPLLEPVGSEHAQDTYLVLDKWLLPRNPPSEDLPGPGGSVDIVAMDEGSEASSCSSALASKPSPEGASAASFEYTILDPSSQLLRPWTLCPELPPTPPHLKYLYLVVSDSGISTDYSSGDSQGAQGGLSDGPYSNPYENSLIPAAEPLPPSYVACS


Target: T1, erythropoietin receptor
Assay: cell-based or functional assay

| Binder | EC50, proliferation assay with TF-1 cells by MTT |
| --- | --- |
| GGTYSCHFGKLTWVCKKQGG (disulfide 6-15 (inferred)) [peptide SEQ. ID NO. 2 GGTYSCHFGKLTWVCKKQGG] | 3.28 µM |
| GGTYSCHFGKLTWVCKPQGG (disulfide 6-15 (inferred)) [peptide SEQ. ID NO. 4 GGTYSCHFGKLTWVCKPQGG] | 4.66 µM |
| GGTYSCHFGRLTWVCKPQGG (disulfide 6-15 (inferred)) [peptide SEQ. ID NO. 5 GGTYSCHFGRLTWVCKPQGG] | 5.16 µM |
| GGTYSCHFGRLTWVCKKQGG (disulfide 6-15 (inferred)) [peptide SEQ. ID NO. 6 GGTYSCHFGRLTWVCKKQGG] | 4.97 µM |
| GGTYSCHF[Als]LTWVCKPQGG (disulfide 6-14 (inferred)) [peptide SEQ. ID NO. 7 GGTYSCHF-(Als)-LTWVCKPQGG] | 5.26 µM |
| GGTYSCHF[Als]LTWVCKKQGG (disulfide 6-14 (inferred)) [peptide SEQ. ID NO. 8 GGTYSCHF-(Als)-LTWVCKKQGG] | 5 µM |
| GGTYSCHFGPLTWVCKKQGG (disulfide 6-15 (inferred)) [peptide GGTYSCHFGPLTWVCKKQGG] | 2.52 µM |
| GGTYSCHFAKLTWVCKKQGG (disulfide 6-15 (inferred)) [peptide GGTYSCHFAKLTWVCKKQGG] | 5.04 µM |
